T1: RbFoxmut (RRM with four substitutions) (UniProt Q9NWB1)
T1 sequence: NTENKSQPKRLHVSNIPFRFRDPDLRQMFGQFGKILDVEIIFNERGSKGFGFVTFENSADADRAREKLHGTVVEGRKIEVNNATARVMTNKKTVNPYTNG

T2: RBFOX1 RRM RbFoxmut (Fox-RRM*) (Homo sapiens, UniProt Q9NWB1 109-208, R118D;E147R;N151S;E152T)
T2 sequence: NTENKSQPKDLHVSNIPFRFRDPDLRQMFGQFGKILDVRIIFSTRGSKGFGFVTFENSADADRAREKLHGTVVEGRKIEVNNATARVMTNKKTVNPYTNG

T3: RBFOX1 RRM (Homo sapiens, UniProt Q9NWB1 109-208)
T3 sequence: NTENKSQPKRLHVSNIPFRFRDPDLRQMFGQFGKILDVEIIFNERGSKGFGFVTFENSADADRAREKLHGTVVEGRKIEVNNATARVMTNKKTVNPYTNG

T4: RbFox RRM (wt) (UniProt Q9NWB1 109-208)
T4 sequence: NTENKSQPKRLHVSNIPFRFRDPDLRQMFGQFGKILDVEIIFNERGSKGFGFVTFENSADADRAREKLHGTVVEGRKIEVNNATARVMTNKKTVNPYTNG


Tests used:
[1] = biological target: T1, RbFoxmut (RRM with four substitutions); test: EMSA; conditions: EMSA: 10 mM Tris pH 7.5, 150 mM NaCl, 3.4 mM EDTA, 0.001% NP-40, 30 C, 10 min, 1 nM RNA, 8% native PAGE; NMR: 10 mM sodium phosphate pH 6.0, 30 mM NaCl, 298 K …
[2] = biological target: T2, RBFOX1 RRM RbFoxmut (Fox-RRM*); test: EMSA; 10 mM Tris pH 7.5, 150 mM NaCl, 3.4 mM EDTA, 0.001% NP-40, 30 C; conditions: tags: His6 N-terminal (pET28a); label: 5' 32P
[3] = biological target: T3, RBFOX1 RRM; test: as above; conditions: tags: His6 N-terminal (pET28a); label: 5' 32P
[4] = biological target: T4, RbFox RRM (wt); test: EMSA; EMSA: 10 mM Tris pH 7.5, 150 mM NaCl, 3.4 mM EDTA, 0.001% NP-40, 30 C, 10 min, 1 nM RNA, 8% native PAGE; NMR: 10 mM sodium phosphate pH 6.0, 30 mM NaCl, 298 K; conditions: protein: recombinant; tags: His6 (HisTrap) for EMSA; His6-GST removed by TEV for NMR; label: 5' 32P (EMSA); unlabeled (NMR)

Row | Molecule | K half [1] | apparent K (half saturation) [2] | other results
1 | UGCAUGU [UGCAUGU (cognate)] | 14.3 nM | – | –
2 | UGAAUGU | 35.3 nM | – | –
3 | UACAUGU | – | – | binding signal [1]: -5.01 ln(KA,rel)
4 | UGAAUGU (ssRNA) | – | 35.3 ± 11.8 nM | apparent K (half saturation) [3]: > 17 µM
5 | UGCAUGU (ssRNA) [UGCAUGU (cognate)] | – | – | apparent K (half saturation) [4]: 1.6 ± 0.3 nM
6 | UGCAUGU (ssRNA) | – | 14.3 ± 2.5 nM | –

Source: PMC9911399, “Two distinct binding modes provide the RNA-binding protein RbFox with extraordinary sequence specificity”
